What all share (settings): both partners purified
Experiment [1] has as its target T1, human complement component C3 (Homo sapiens, UniProt P01024).
T1 construct: Complement component C3, human, beta chain of the processed serum protein; Complement component C3, human, alpha chain of the processed serum protein; source: bought: CompTech
As to the kind of experiment: SPR; Biacore single-cycle kinetics counter screen; C3 amine-coupled to CM5 (minimal immobilisation, 40-55 RU); PGT121 knob fusion proteins as analytes.

The target of experiment [2] is T2, Complement component C5 (Homo sapiens, UniProt P01031).
T2 construct: Complement component C5, human, beta chain of the processed serum protein; Complement component C5, human, alpha chain of the processed serum protein; In the FRET assays C5 carried an amine-reactive terbium chelate (dye to protein 4:1); in SPR it was amine-coupled to a CM5 chip; The C5 used for immunisation was bought from CompTech; also called human C5; C5-Tb
T2 sequence (P01031 whole entry, looked up): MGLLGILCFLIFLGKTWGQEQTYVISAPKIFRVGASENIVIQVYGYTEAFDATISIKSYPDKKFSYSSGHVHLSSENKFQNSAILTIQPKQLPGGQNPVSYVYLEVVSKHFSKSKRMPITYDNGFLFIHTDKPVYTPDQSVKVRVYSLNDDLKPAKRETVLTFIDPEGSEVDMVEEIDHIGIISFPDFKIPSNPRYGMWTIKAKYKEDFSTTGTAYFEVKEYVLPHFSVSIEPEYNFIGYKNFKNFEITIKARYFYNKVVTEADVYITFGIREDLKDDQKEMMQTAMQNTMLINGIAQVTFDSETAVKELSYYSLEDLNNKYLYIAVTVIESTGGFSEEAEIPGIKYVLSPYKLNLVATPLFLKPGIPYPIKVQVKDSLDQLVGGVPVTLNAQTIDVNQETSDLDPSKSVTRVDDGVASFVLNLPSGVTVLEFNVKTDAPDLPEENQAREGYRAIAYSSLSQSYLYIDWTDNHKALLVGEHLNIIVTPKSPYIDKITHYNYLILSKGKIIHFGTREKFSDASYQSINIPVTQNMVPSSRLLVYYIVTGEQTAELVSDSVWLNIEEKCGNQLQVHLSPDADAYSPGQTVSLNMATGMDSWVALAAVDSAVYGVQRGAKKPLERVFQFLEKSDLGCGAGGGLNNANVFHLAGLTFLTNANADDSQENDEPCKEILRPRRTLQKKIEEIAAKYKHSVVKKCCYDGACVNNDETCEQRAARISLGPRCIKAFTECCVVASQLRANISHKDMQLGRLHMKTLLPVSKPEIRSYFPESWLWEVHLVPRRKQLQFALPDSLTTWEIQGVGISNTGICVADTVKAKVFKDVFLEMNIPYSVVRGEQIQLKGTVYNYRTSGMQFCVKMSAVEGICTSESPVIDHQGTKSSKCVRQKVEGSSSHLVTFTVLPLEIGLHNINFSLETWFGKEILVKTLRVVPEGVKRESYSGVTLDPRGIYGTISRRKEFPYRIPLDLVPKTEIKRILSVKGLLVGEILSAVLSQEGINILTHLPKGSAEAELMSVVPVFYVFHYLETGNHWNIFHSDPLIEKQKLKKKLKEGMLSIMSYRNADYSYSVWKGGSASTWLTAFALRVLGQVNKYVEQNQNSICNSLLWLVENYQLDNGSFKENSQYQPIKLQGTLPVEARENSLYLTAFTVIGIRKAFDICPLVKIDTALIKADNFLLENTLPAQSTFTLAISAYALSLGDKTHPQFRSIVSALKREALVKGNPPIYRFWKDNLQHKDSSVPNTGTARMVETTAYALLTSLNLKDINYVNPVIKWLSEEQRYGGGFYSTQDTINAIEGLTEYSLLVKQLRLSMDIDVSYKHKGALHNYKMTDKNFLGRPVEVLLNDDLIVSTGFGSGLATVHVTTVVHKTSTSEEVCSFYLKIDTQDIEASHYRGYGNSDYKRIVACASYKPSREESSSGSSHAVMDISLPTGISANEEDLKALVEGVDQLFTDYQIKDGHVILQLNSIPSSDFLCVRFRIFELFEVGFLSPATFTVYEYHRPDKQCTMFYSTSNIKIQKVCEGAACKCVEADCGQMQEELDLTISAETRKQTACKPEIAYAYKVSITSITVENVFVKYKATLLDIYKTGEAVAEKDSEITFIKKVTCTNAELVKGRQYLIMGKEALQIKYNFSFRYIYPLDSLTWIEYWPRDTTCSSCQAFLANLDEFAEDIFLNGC
As to the kind of experiment: FRET or BRET; steady state FRET; 1 nM terbium-labelled C5; titration of AlexaFluor 647-labelled PGT121 knob fusion protein in HBS-EP, with and without 1 μM unlabelled C5; 24 hours; apparent KD (KD app), geomean of 3 experiments.

Experiment [3] deals with T2, Complement component C5. As to the kind of experiment: SPR; Biacore 8K single-cycle kinetics; C5 amine-coupled to CM5 (minimal immobilisation, 100-160 RU; 50-85 RU for PGT121-K149); PGT121 knob fusion proteins as analytes, 1 μM to 1.37 nM in HBS-EP; 40 μL/min (100 μL/min for K149); dissociation 10,000 s; 1:1 model; mean of 3 experiments.

Drawing on paper PMC7498065 (PLoS Biology, 2020), this text covers binding result, Kd and koff for two molecules.

T1 sequence (P01024 whole entry, looked up): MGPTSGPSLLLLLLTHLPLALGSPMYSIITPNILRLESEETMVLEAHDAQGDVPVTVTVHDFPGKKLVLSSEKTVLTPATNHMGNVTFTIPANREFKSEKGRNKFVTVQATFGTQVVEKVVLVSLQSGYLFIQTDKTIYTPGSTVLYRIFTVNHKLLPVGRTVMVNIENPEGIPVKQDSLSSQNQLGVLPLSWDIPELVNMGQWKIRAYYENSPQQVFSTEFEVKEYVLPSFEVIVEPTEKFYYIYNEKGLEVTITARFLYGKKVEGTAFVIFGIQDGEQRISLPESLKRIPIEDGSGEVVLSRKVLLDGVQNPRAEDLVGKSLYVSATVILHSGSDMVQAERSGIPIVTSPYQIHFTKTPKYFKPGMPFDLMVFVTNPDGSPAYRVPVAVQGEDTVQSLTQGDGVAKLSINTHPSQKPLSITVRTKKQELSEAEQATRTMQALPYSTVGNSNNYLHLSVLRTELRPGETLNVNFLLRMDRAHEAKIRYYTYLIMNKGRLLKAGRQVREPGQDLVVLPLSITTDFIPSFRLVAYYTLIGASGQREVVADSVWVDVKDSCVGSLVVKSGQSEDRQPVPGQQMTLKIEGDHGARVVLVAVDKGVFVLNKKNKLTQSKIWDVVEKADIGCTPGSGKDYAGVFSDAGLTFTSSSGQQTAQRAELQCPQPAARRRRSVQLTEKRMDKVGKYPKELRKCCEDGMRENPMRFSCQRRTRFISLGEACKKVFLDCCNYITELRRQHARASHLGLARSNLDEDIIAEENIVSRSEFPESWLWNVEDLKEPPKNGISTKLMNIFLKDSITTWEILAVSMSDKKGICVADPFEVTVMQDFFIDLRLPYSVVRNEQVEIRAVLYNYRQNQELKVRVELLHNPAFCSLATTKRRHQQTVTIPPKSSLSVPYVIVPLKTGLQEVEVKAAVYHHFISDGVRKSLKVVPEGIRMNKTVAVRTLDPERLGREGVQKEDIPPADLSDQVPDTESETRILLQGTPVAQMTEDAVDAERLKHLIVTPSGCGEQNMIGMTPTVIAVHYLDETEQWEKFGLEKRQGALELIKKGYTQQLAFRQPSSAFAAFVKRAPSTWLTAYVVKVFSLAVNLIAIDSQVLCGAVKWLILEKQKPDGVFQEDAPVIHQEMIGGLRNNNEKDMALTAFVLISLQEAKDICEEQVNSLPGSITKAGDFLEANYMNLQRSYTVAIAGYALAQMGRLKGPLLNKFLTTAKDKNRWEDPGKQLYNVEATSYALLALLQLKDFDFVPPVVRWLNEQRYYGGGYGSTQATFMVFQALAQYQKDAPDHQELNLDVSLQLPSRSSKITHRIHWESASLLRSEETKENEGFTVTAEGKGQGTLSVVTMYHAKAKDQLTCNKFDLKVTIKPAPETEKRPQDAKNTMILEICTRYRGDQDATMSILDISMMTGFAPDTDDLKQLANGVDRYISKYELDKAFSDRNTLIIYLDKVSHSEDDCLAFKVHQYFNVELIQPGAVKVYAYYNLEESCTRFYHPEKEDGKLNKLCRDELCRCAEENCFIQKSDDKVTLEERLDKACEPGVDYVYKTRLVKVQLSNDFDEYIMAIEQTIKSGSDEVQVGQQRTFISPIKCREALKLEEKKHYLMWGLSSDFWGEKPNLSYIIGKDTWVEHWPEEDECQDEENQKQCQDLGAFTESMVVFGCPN

B1: PGT121-K136 fusion protein (Fab)
VH: QMQLQESGPGLVKPSETLSLTCSVSGASISDSYWSWIRRSPGKGLEWIGYVHKSGDTNYSPSLKSRVNLSLDTSKNQVSLSLVAATAADSGKYYCARTLHGRRIYGSENLYFQGTCPDNYREVDGCDPYDCCLTTWCTNSYCTRYIENLYFQGSEWFTYFYMDVWGNGTQVTVSS
VL: QSVLTQPPDISVAPGETARISCGEKSLGSRAVQWYQHRAGQAPSLIIYNNQDRPSGIPERFSGSPDSPFGTTATLTITSVEAGDEADYYCHIWDSRVPTKWVFGGGTTLTVL
notes: light chain of the human Fab PGT121, as the light chain of m4; Purified on a nickel column, so a His tag is surmised; also called PGT121 Fab-knob domain fusion protein (K136); source: Expi293F, transient co-transfection of heavy and light chain, purified from supernatant (Hi-Trap Nickel excel)
For the molecule B1, in experiment [1], the binding result is recorded as “no binding (tested: 1 μM)”. In addition, the Kd with Complement component C5 [2] stood at 40 nM. Also, the off-rate (koff) with Complement component C5 [3] is < 1e-05 s⁻¹.

B2: PGT121-K149 fusion protein (Fab)
VH: QMQLQESGPGLVKPSETLSLTCSVSGASISDSYWSWIRRSPGKGLEWIGYVHKSGDTNYSPSLKSRVNLSLDTSKNQVSLSLVAATAADSGKYYCARTLHGRRIYGSENLYFQGSCPDGFSYRSWDDFCCPMVGRCLAPRNGSENLYFQGSEWFTYFYMDVWGNGTQVTVSS
VL: B1 VL
notes: light chain of the human Fab PGT121, as the light chain of m4; Purified on a nickel column, so a His tag is surmised; also called K149-PGT121 construct; source: Expi293F, transient co-transfection of heavy and light chain, purified from supernatant (Hi-Trap Nickel excel)
As for B2, the binding result in experiment [1] is given as “no binding (tested: 1 μM)”. Further, the Kd in the experiment with Complement component C5 [2] came out at 66 nM.
